Values quoted from earlier work as cited in paper PMC8671346.

Columns and labels:
[1] = biological target: GM-CSF receptor alpha chain (GMRα) (Homo sapiens) (UniProt P15509)
[2] = biological target: GM-CSF receptor (GMRα/βc) (Homo sapiens) (UniProt P15509)

Kd [1]: 5 nM
Kd [2]: 0.1 nM
Substance: GM-CSF (from UniProt P04141)
